According to patent publication US20250076311A1 (Chugai, published 2025):
Each block holds one binder with its values, some of them ahead of it.

Key:
[1] = molecular target: T1, human FcγRIIb extracellular domain, His-tagged (human, UniProt P31994 43-217); assay: SPR (BIACORE), antibody captured on chip, soluble FcgR as analyte, 25 C
T1 construct: also called human FcgRIIb; not shown: His-tag added to the C-terminus
T1 sequence: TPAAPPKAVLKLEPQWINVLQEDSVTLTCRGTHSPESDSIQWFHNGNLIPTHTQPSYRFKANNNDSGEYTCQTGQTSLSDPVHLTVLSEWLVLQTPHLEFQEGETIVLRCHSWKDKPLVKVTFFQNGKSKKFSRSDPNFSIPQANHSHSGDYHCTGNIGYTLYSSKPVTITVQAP
Protocol: (§1) The kinetic analysis of interactions between these antibodies and FcγR was carried out using BIACORE® T200 or BIACORE® 4000 (GE Healthcare). HBS-EP+ (GE Healthcare) was used as the running buffer, and the measurement temperature was set to 25° C. […] After the measurement, the antibody captured on the chip was washed off by allowing reaction with 10 mM glycine-HCl, pH1.5 and 25 mM NaOH so that the chip was regenerated and used repeatedly. The sensorgrams obtained as measurement results were analyzed by the 1:1 Langmuir binding model using the BIACORE® Evaluation Software to calculate the binding rate constant ka (L/mol/s) and dissociation rate constant kd (1/s), and the dissociation constant KD (mol/L) was calculated from these values. […] Regarding such interactions, KD values were calculated using the following 1:1 binding model described in BIACORE® T100 Software Handbook BR1006-48 Edition AE.

[2] = molecular target: T2, cynomolgus monkey FcγRIIa3 extracellular domain, His-tagged (cynomolgus monkey); assay: as above
T2 construct: also called cyno FcgRIIa3; cynoFcγRIIa3; not shown: His-tag added to the C-terminus
T2 chain: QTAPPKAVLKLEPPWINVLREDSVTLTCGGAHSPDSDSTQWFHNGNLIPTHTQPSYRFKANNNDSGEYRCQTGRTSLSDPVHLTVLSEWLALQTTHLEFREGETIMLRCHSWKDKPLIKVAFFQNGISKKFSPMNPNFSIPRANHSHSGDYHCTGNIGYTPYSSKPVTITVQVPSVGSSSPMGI
Protocol: as §1

[3] = molecular target: T3, cynomolgus monkey FcγRIIIaS extracellular domain, His-tagged (cynomolgus monkey, UniProt A3RFZ7 21-206 (rhesus entry)); assay: as above
T3 construct: also called cyno FcgRIIIaS; cynoFcγRIIIaS; not shown: His-tag added to the C-terminus
Protocol: as §1

[4] = molecular target: T4, human FcγRIIIaV extracellular domain, His-tagged (human, UniProt P08637 17-208); assay: SPR Biacore, KD(SG1)/KD(variant)
T4 construct: also called FcgRIIIaV; not shown: C-terminal His-tag

[5] = molecular target: T5, cynomolgus monkey FcγRIIa3 extracellular domain, His-tagged (cynomolgus monkey); assay: SPR Biacore, KD(SG1)/KD(variant)
T5 construct: also called cyno FcγRIIa3; cynoFcgRIIa3; not shown: C-terminal His-tag
T5 chain: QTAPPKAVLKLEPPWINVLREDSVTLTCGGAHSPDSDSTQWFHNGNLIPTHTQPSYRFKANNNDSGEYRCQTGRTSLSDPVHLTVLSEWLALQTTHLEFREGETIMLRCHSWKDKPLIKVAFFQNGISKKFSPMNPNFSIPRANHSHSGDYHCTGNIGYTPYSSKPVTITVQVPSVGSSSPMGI

[6] = molecular target: T6, human FcγRIIIaV extracellular domain with C-terminal His-tag (human, UniProt P08637 17-208); assay: SPR (Biacore), antibody captured, FcgR analyte
T6 construct: also called human FcgRIIIaV

[7] = molecular target: T7, human FcγRIIaR extracellular domain with C-terminal His-tag (human, UniProt P12318 34-217); assay: SPR (Biacore), antibody captured, FcgR analyte
T7 construct: also called human FcgRIIaR; FcγRIIa (type R)
T7 chain: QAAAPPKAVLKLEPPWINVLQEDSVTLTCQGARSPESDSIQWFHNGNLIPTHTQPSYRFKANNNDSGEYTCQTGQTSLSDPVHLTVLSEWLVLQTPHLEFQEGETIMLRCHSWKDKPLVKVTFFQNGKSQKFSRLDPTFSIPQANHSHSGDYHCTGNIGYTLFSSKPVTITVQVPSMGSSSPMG

[8] = molecular target: T8, cynomolgus monkey FcγRIIa1 extracellular domain with C-terminal His-tag (cynomolgus monkey); assay: SPR (Biacore), antibody captured, FcgR analyte
T8 construct: also called cyno FcgRIIa1; cynoFcγRIIa1
T8 chain: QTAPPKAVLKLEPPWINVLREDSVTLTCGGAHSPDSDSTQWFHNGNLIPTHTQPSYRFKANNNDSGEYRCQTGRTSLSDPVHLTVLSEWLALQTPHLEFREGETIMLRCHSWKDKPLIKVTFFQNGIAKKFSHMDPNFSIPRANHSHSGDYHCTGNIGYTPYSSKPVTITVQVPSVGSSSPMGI

T4 sequence (P08637 17-208 F176V): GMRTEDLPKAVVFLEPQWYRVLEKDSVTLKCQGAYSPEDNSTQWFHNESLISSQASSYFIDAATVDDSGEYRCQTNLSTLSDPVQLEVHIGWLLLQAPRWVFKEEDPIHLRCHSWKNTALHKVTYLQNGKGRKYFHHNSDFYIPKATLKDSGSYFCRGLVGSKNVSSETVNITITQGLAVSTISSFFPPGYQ
T3 sequence (A3RFZ7 21-206): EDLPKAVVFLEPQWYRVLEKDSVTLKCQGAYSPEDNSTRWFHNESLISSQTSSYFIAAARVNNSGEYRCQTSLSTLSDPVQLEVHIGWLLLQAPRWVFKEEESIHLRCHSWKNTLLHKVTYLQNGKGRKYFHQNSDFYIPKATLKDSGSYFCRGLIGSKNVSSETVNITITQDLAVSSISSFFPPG
T6 sequence (P08637 17-208 F176V): as the sequence (P08637 17-208 F176V) above

- Kd [1]: 53 nM
- Kd [2]: 55000 nM
- Kd [3]: 2400 nM
B1: M103205H795-MY261/M103202L889-SK1 (antibody, human IgG1, kappa, name in EU numbering)
heavy: QVTLKESGPVLVKPTETLTLTCTVSGIDLSHDDISWVRQAPGKGLEWVGIISYAGSTYYASWAKGRLTISKDTSKNQVVLTMTNMDPVDTATYYCARGVPAYSHGGDLWGQGTLVTVSSASTKGPSVFPLAPSSKSTSGGTAALGCLVKDYFPEPVTVSWNSGALTSGVHTFPAVLQSSGLYSLSSVVTVPSSSLGTQTYICNVNHKPSNTKVDKKVEPKSCDKTHTCPPCPAPELLHGPSVFLFPPKPKDTLMISRTPEVTCVVVDVSDEDPEVKFNWYVDGVEVHNAKTKPREEQYNSTYRVVSVLTVLHQDWLNGKEYKCKVSNKALPKPIEKTISKAKGQPREPQVYTLPPSREEMTKNQVSLTCLVKGFYPSDIAVEWESNGQPENNYKTTPPVLDSDGSFFLYSKLTVDKSRWQQGNVFSCSVMHEALHNHYTQKSLSLSP
light: DIVMTQSPATLSLSPGERATLSCTSSQSVYHANWLSWFQQKPGQPPKLLIYWASTLAYGVPSRFSGSGSGTDFTLTISSLQPEDAATYYCAGGYGGGRYAFGQGTKVEIKRTVAAPSVFIFPPSDEQLKSGTASVVCLLNNFYPREAKVQWKVDNALQSGNSQESVTEQDSKDSTYSLSSTLTLSKADYEKHKVYACEVTHQGLSSPVTKSFNRGEC
notes: Asn at EU 236 of MY201 replaced with His

- KD fold (SG1 = 1) [4]: 2.19 fold
- KD fold (SG1 = 1) [5]: 1.6 fold
B2: M103205H795-MY037/M103202L889-SK1 (antibody, human IgG1, kappa, name in EU numbering)
heavy: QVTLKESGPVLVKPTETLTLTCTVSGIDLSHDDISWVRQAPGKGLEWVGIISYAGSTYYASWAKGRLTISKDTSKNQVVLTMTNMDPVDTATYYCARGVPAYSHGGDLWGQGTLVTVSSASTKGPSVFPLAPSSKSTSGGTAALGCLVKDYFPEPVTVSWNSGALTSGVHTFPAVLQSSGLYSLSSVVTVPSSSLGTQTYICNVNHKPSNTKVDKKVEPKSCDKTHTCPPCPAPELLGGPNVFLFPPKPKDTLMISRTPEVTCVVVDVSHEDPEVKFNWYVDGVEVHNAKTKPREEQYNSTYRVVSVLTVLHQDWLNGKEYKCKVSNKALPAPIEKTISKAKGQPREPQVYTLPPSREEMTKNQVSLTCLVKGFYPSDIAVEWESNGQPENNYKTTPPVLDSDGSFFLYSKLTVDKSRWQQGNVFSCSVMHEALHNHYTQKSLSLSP
light: DIVMTQSPATLSLSPGERATLSCTSSQSVYHANWLSWFQQKPGQPPKLLIYWASTLAYGVPSRFSGSGSGTDFTLTISSLQPEDAATYYCAGGYGGGRYAFGQGTKVEIKRTVAAPSVFIFPPSDEQLKSGTASVVCLLNNFYPREAKVQWKVDNALQSGNSQESVTEQDSKDSTYSLSSTLTLSKADYEKHKVYACEVTHQGLSSPVTKSFNRGEC
notes: Substitution introduced into M103205H795-SG1; EU numbering

- KD fold (SG1 = 1) [4]: 2.19 fold
B3: M103205H795-MY016/M103202L889-SK1 (antibody, human IgG1, kappa, name in EU numbering)
heavy: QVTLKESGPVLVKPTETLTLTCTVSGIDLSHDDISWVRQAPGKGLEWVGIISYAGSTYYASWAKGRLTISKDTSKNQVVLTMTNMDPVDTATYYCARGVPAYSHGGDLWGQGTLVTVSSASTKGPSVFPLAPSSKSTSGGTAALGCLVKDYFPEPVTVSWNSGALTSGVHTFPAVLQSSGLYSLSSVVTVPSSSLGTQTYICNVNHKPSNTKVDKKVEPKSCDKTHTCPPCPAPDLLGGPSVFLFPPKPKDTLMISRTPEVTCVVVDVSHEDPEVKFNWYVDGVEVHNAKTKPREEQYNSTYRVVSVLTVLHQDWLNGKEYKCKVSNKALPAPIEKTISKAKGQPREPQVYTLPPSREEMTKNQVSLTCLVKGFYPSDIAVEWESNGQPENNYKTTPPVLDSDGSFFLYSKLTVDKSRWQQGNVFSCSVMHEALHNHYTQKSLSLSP
light: DIVMTQSPATLSLSPGERATLSCTSSQSVYHANWLSWFQQKPGQPPKLLIYWASTLAYGVPSRFSGSGSGTDFTLTISSLQPEDAATYYCAGGYGGGRYAFGQGTKVEIKRTVAAPSVFIFPPSDEQLKSGTASVVCLLNNFYPREAKVQWKVDNALQSGNSQESVTEQDSKDSTYSLSSTLTLSKADYEKHKVYACEVTHQGLSSPVTKSFNRGEC
notes: Substitution introduced into M103205H795-SG1

- Kd [6]: 1400 nM
- Kd [7]: 16 nM
- Kd [8]: 6200 nM
B4: M103205H795-MY453/M103202L889-SK1 (antibody, human IgG1, kappa)
heavy: QVTLKESGPVLVKPTETLTLTCTVSGIDLSHDDISWVRQAPGKGLEWVGIISYAGSTYYASWAKGRLTISKDTSKNQVVLTMTNMDPVDTATYYCARGVPAYSHGGDLWGQGTLVTVSSASTKGPSVFPLAPSSKSTSGGTAALGCLVKDYFPEPVTVSWNSGALTSGVHTFPAVLQSSGLYSLSSVVTVPSSSLGTQTYICNVNHKPSNTKVDKKVEPKSCDKTHTCPPCPARELLTGPSVFLFPPKPKDTLMISRTPEVTCVVVDVSDEDPEVKFNWYVDGVEVHNAKTKPREEQYNSTYRVVSVLTVLHQDWLNGKEYKCKVSNKALPKPIEKTISKAKGQPREPQVYTLPPSREEMTKNQVSLTCLVKGFYPSDIAVEWESNGQPENNYKTTPPVLDSDGSFFLYSKLTVDKSRWQQGNVFSCSVMHEALHNHYTQKSLSLSP
light: DIVMTQSPATLSLSPGERATLSCTSSQSVYHANWLSWFQQKPGQPPKLLIYWASTLAYGVPSRFSGSGSGTDFTLTISSLQPEDAATYYCAGGYGGGRYAFGQGTKVEIKRTVAAPSVFIFPPSDEQLKSGTASVVCLLNNFYPREAKVQWKVDNALQSGNSQESVTEQDSKDSTYSLSSTLTLSKADYEKHKVYACEVTHQGLSSPVTKSFNRGEC
notes: Substitutions in EU numbering on SG1
